Molecular target: HydABCD unit of the synthetic Caldanaerobacter subterranus NADH-dependent [FeFe]-hydrogenase complex (with HydC^His) (Caldanaerobacter subterranus subsp. tengcongensis)
Test: SEC-MALS; IMAC-purified enzyme on a MAbPac SEC-1 column, 50 mM Tris.HCl pH 7.5, 150 mM NaCl, 0.5 ml/min; peak fraction analysed by SDS-PAGE

- stoichiometry N: 2
Substance: HydABCD unit of the synthetic Caldanaerobacter subterranus NADH-dependent [FeFe]-hydrogenase complex (with HydC^His)

Source: article PMC4694547
